This data set can be described thus: sedimentation equilibrium AUC, self-association, 25 C.

The text below walks through data of patent US20100273722.

Substance pancreatic peptide YY (PYY) gave a % monomer at 30 µM of 94%.
